The values that follow come from patent publication US20220340666A1.

The Kd is a measure of binding affinity in units of concentration. The low end stands for a tighter complex, the high end for a looser complex.

The test addresses endogenous Galectin-9 on CRL-2134 cells (human) (UniProt O00182). Kind of test: cell-based binding assay, flow cytometry on CRL-2134 cells.

Sequence of endogenous Galectin-9 on CRL-2134 cells (human) (O00182 whole entry): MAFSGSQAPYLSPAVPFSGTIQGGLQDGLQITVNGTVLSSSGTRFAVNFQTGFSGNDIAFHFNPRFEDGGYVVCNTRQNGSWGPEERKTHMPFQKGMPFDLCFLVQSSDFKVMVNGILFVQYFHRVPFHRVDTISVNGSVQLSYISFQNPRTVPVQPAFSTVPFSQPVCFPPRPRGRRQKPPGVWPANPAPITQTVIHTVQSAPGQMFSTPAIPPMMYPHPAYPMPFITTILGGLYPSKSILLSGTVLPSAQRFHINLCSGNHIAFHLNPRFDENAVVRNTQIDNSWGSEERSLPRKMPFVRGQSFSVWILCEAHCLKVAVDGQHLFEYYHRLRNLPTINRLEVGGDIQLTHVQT

B1: G9.2-17 hIgG1 (antibody, V domains shown)
VH: EVQLVESGGGLVQPGGSLRLSCAASGFTVSSSSIHWVRQAPGKGLEWVAYISSSSGYTYYADSVKGRFTISADTSKNTAYLQMNSLRAEDTAVYYCARYWSYPSWWPYRGMDYWGQGTLVTVSS
VL: DIQMTQSPSSLSASVGDRVTITCRASQSVSSAVAWYQQKPGKAPKLLIYSASSLYSGVPSRFSGSRSGTDFTLTISSLQPEDFATYYCQQSSTDPITFGQGTKVEIKR
B1 yielded a Kd of 0.41 nM.

B2: G9.2-17 mIgG1 (antibody, V domains shown)
VH: EVQLVESGGGLVQPGGSLRLSCAASGFTVSSSSIHWVRQAPGKGLEWVAYISSSSGYTYYADSVKGRFTISADTSKNTAYLQMNSLRAEDTAVYYCARYWSYPSWWPYRGMDYWGQGTLVTVSS
VL: DIQMTQSPSSLSASVGDRVTITCRASQSVSSAVAWYQQKPGKAPKLLIYSASSLYSGVPSRFSGSRSGTDFTLTISSLQPEDFATYYCQQSSTDPITFGQGTKVEIKR
Consider B2, for which the Kd worked out at 2.91 nM.
